How the values were obtained:
[1] = target: DhmeA^ΔGG (Haloferax mediterranei); assay: crystal structure; DhmeA^ΔGG 12-14 mg/mL; sitting drop at 10°C; 0.1 M MES/imidazole pH 6.5, 0.1 M amino acids, 10% PEG 4,000, 20% glycerol; 3.3 Å
[2] = target: full-length wild-type DhmeA from pnEA/3CH-dhmeA, His6 tag removed with 3C protease (Haloferax mediterranei); assay: dynamic light scattering; wild-type DhmeA 1 mg/mL in 1 M NaCl, 10 mM Tris pH 8.0, 0.5 mM TCEP; Delsa Max Core
[3] = target: full-length wild-type DhmeA from pnEA/3CH-dhmeA, His6 tag removed with 3C protease (Haloferax mediterranei); assay: cryo-EM structure; full-length DhmeA 0.035 mg/mL on Quantifoil grids; data collected at 0° and 44° stage tilt on a Titan Krios; 7-8 Å

| Substance | stoichiometry N [1] | stoichiometry N [2] | stoichiometry N [3] |
| --- | --- | --- | --- |
| DhmeA^ΔGG (enzyme) | 20 | – | – |
| full-length wild-type DhmeA from pnEA/3CH-dhmeA, His6 tag removed with 3C protease (enzyme) | – | 4 | 6 |

From article PMC10503415
